biological target: T1, CD3 epsilon homodimer protein (UniProt P07766 23-126); assay: SPR (Biacore T200), CD3 epsilon homodimer on CM4 chip, one-arm antibody as analyte, 25 C;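 further: homodimer attached to the sensor surface via amine coupling, HBS-EP+ used as running buffer during binding runs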
T1 construct: immobilized on Sensor chip CM4 by amine coupling; also called CD3 (CD3 epsilon)
T1 sequence (P07766 23-126): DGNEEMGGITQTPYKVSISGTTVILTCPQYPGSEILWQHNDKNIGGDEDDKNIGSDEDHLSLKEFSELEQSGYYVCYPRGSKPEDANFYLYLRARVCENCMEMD

Binder	ratio of amounts bound (altered form / CE115HA000)
CE115HA000 N31H one-arm antibody (antibody, human IgG1, kappa, L234A L235A, N297A, name in Kabat numbering) heavy: QVQLVESGGGVVQPGRSLRLSCAASGFTFSHAWMHWVRQAPGKGLEWVAQIKAKSNNYATYYAESVKGRFTISRDDSKNSLYLQMNSLKTEDTAVYYCRYVHYGAYYGVDAWGQGTTVTVSSASTKGPSVFPLAPSSKSTSGGTAALGCLVKDYFPEPVTVSWNSGALTSGVHTFPAVLQSSGLYSLSSVVTVPSSSLGTQTYICNVNHKPSNTKVDKKVEPKSCDKTHTCPPCPAPEAAGGPSVFLFPPKPKDTLMISRTPEVTCVVVDVSHEDPEVKFNWYVDGVEVHNAKTKPREEQYASTYRVVSVLTVLHQDWLNGKEYKCKVSNKALPAPIEKTISKAKGQPREPQVYTLPPSRCELTKNQVSLSCAVKGFYPSDIAVEWESNGQPENNYKTTPPVLDSDGSFFLVSKLTVDKSRWQQGNVFSCSVMHEALHNHYTQKSLSLSPDYKDDDDK EPKSSDKTHTCPPCPAPELLGGPSVFLFPPKPKDTLMISRTPEVTCVVVDVSHEDPEVKFNWYVDGVEVHNAKTKPREEQYNSTYRVVSVLTVLHQDWLNGKEYKCKVSNKALPAPIEKTISKAKGQPREPQVCTLPPSRDELTKNQVSLWCLVKGFYPSDIAVEWESNGQPENNYKTTPPVLDSDGSFFLYSKLTVDKSRWQQGNVFSCSVMHEALHNRYTQKSLSLSP light: DIVMTQSPLSLPVTPGEPASISCRSSQSLVHSNRNTYLHWYQQKPGQAPRLLIYKVSNRFSGVPDRFSGSGSGTDFTLKISRVEAEDVGVYYCGQGTQVPYTFGQGTKLEIKRTVAAPSVFIFPPSDEQLKSGTASVVCLLNNFYPREAKVQWKVDNALQSGNSQESVTEQDSKDSTYSLSSTLTLSKADYEKHKVYACEVTHQGLSSPVTKSFNRGEC	0.68
CE115HA000 N31Q one-arm antibody (antibody, human IgG1, kappa, L234A L235A, N297A, name in Kabat numbering) heavy: QVQLVESGGGVVQPGRSLRLSCAASGFTFSQAWMHWVRQAPGKGLEWVAQIKAKSNNYATYYAESVKGRFTISRDDSKNSLYLQMNSLKTEDTAVYYCRYVHYGAYYGVDAWGQGTTVTVSSASTKGPSVFPLAPSSKSTSGGTAALGCLVKDYFPEPVTVSWNSGALTSGVHTFPAVLQSSGLYSLSSVVTVPSSSLGTQTYICNVNHKPSNTKVDKKVEPKSCDKTHTCPPCPAPEAAGGPSVFLFPPKPKDTLMISRTPEVTCVVVDVSHEDPEVKFNWYVDGVEVHNAKTKPREEQYASTYRVVSVLTVLHQDWLNGKEYKCKVSNKALPAPIEKTISKAKGQPREPQVYTLPPSRCELTKNQVSLSCAVKGFYPSDIAVEWESNGQPENNYKTTPPVLDSDGSFFLVSKLTVDKSRWQQGNVFSCSVMHEALHNHYTQKSLSLSPDYKDDDDK EPKSSDKTHTCPPCPAPELLGGPSVFLFPPKPKDTLMISRTPEVTCVVVDVSHEDPEVKFNWYVDGVEVHNAKTKPREEQYNSTYRVVSVLTVLHQDWLNGKEYKCKVSNKALPAPIEKTISKAKGQPREPQVCTLPPSRDELTKNQVSLWCLVKGFYPSDIAVEWESNGQPENNYKTTPPVLDSDGSFFLYSKLTVDKSRWQQGNVFSCSVMHEALHNRYTQKSLSLSP light: DIVMTQSPLSLPVTPGEPASISCRSSQSLVHSNRNTYLHWYQQKPGQAPRLLIYKVSNRFSGVPDRFSGSGSGTDFTLKISRVEAEDVGVYYCGQGTQVPYTFGQGTKLEIKRTVAAPSVFIFPPSDEQLKSGTASVVCLLNNFYPREAKVQWKVDNALQSGNSQESVTEQDSKDSTYSLSSTLTLSKADYEKHKVYACEVTHQGLSSPVTKSFNRGEC	0.49
CE115HA000 N31I one-arm antibody (antibody, human IgG1, kappa, L234A L235A, N297A, name in Kabat numbering) heavy: QVQLVESGGGVVQPGRSLRLSCAASGFTFSIAWMHWVRQAPGKGLEWVAQIKAKSNNYATYYAESVKGRFTISRDDSKNSLYLQMNSLKTEDTAVYYCRYVHYGAYYGVDAWGQGTTVTVSSASTKGPSVFPLAPSSKSTSGGTAALGCLVKDYFPEPVTVSWNSGALTSGVHTFPAVLQSSGLYSLSSVVTVPSSSLGTQTYICNVNHKPSNTKVDKKVEPKSCDKTHTCPPCPAPEAAGGPSVFLFPPKPKDTLMISRTPEVTCVVVDVSHEDPEVKFNWYVDGVEVHNAKTKPREEQYASTYRVVSVLTVLHQDWLNGKEYKCKVSNKALPAPIEKTISKAKGQPREPQVYTLPPSRCELTKNQVSLSCAVKGFYPSDIAVEWESNGQPENNYKTTPPVLDSDGSFFLVSKLTVDKSRWQQGNVFSCSVMHEALHNHYTQKSLSLSPDYKDDDDK EPKSSDKTHTCPPCPAPELLGGPSVFLFPPKPKDTLMISRTPEVTCVVVDVSHEDPEVKFNWYVDGVEVHNAKTKPREEQYNSTYRVVSVLTVLHQDWLNGKEYKCKVSNKALPAPIEKTISKAKGQPREPQVCTLPPSRDELTKNQVSLWCLVKGFYPSDIAVEWESNGQPENNYKTTPPVLDSDGSFFLYSKLTVDKSRWQQGNVFSCSVMHEALHNRYTQKSLSLSP light: DIVMTQSPLSLPVTPGEPASISCRSSQSLVHSNRNTYLHWYQQKPGQAPRLLIYKVSNRFSGVPDRFSGSGSGTDFTLKISRVEAEDVGVYYCGQGTQVPYTFGQGTKLEIKRTVAAPSVFIFPPSDEQLKSGTASVVCLLNNFYPREAKVQWKVDNALQSGNSQESVTEQDSKDSTYSLSSTLTLSKADYEKHKVYACEVTHQGLSSPVTKSFNRGEC	0.81
CE115HA000 N31K one-arm antibody (antibody, human IgG1, kappa, L234A L235A, N297A, name in Kabat numbering) heavy: QVQLVESGGGVVQPGRSLRLSCAASGFTFSKAWMHWVRQAPGKGLEWVAQIKAKSNNYATYYAESVKGRFTISRDDSKNSLYLQMNSLKTEDTAVYYCRYVHYGAYYGVDAWGQGTTVTVSSASTKGPSVFPLAPSSKSTSGGTAALGCLVKDYFPEPVTVSWNSGALTSGVHTFPAVLQSSGLYSLSSVVTVPSSSLGTQTYICNVNHKPSNTKVDKKVEPKSCDKTHTCPPCPAPEAAGGPSVFLFPPKPKDTLMISRTPEVTCVVVDVSHEDPEVKFNWYVDGVEVHNAKTKPREEQYASTYRVVSVLTVLHQDWLNGKEYKCKVSNKALPAPIEKTISKAKGQPREPQVYTLPPSRCELTKNQVSLSCAVKGFYPSDIAVEWESNGQPENNYKTTPPVLDSDGSFFLVSKLTVDKSRWQQGNVFSCSVMHEALHNHYTQKSLSLSPDYKDDDDK EPKSSDKTHTCPPCPAPELLGGPSVFLFPPKPKDTLMISRTPEVTCVVVDVSHEDPEVKFNWYVDGVEVHNAKTKPREEQYNSTYRVVSVLTVLHQDWLNGKEYKCKVSNKALPAPIEKTISKAKGQPREPQVCTLPPSRDELTKNQVSLWCLVKGFYPSDIAVEWESNGQPENNYKTTPPVLDSDGSFFLYSKLTVDKSRWQQGNVFSCSVMHEALHNRYTQKSLSLSP light: DIVMTQSPLSLPVTPGEPASISCRSSQSLVHSNRNTYLHWYQQKPGQAPRLLIYKVSNRFSGVPDRFSGSGSGTDFTLKISRVEAEDVGVYYCGQGTQVPYTFGQGTKLEIKRTVAAPSVFIFPPSDEQLKSGTASVVCLLNNFYPREAKVQWKVDNALQSGNSQESVTEQDSKDSTYSLSSTLTLSKADYEKHKVYACEVTHQGLSSPVTKSFNRGEC	1.01

— patent US20210388087A1 (Chugai, published 2021)
